{"source": "patent US20240075139A1"}
{"biological_target": "EBOV Mayinga (GenBank: NC_002549) (Zaire Ebolavirus (EBOV Mayinga)) (UniProt Q05320)", "sequence (Q05320 33-676 limits assumed)": "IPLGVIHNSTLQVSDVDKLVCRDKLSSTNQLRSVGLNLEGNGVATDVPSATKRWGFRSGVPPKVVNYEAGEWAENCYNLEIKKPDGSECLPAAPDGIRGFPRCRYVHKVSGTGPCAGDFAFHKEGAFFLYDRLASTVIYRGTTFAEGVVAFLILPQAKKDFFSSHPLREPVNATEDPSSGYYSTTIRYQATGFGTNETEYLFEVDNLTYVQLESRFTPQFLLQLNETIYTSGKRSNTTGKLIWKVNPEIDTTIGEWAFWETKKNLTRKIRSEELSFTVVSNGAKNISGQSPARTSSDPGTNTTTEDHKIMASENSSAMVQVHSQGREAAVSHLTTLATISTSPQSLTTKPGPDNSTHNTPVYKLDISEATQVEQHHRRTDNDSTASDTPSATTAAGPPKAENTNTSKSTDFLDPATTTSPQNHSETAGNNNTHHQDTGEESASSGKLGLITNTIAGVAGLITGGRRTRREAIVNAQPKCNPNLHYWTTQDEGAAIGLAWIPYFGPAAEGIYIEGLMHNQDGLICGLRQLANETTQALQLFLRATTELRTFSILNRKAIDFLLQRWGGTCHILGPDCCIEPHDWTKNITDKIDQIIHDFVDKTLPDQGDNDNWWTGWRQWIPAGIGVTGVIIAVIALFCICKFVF", "experiment": "cell-based or functional assay", "units": {"neutralization concentration (GMC, CPE reduction on Vero C1008 cells)": "µg/mL"}}
{"binder": "3T0611 (antibody, V domains shown) VH: EVQLVESGGNLVQPGGSLRLSCAASGFTFRSYSMNWVRQAPGKGLEWVSYISSSASIIHYAESVQGRFTISRDNAKNSLFLQMNSLRAEDTAVYYCAGILDDYRDYGYDYWGQGTLVTVSS VL: SYELTQPPSVSVSPGQTARITCSGDALPKQYAYWYQQRPGQAPVLVIYKDIERPSGIPERYSGSSSGAIVTLTISGAQAEDEADYYCQSSDNNGSYRVMFGGGTKLTVL", "neutralization concentration (GMC, CPE reduction on Vero C1008 cells)": 0.78}
{"binder": "4T0452 (antibody, V domains shown) VH: EVQLVESGGGLVKPGGSLRISCAASGFSFSNAWMNWVRQAPGKGLEWVGRIKSVSDGGPIHYAAPVKGRFTISRDDSKKMLYLQMNSLKVDDTAVYYCATEPRGYDWGWGQGTLVTVSS VL: QSVLTQPPSVSGAPGQRVTISCTGSYSNIGAGYDVYWYQQFPGTAPKLLIYGNTNRPSGVPDRFSGSRSGTSASLAITGLQAEDEAHYYCQSYDSRLRDNWVLGGGTKLTVL", "neutralization concentration (GMC, CPE reduction on Vero C1008 cells)": 0.88}
{"binder": "4T0764 (antibody, V domains shown) VH: QVQLQESGPGLVEPSETLSLTCTVSGASISSLFWSWIRQPPGKGLEWIGYIHSDGSTNYNPFLKSRVTISIDTSQNQFSLRLTSVTAADTAVYFCARGLLGSQDSWGQGTLVTVSS VL: QSALTQPASVSGSPGQSITISCTGTSSDVGGYNYVSWYQQYPGKAPKLVIYEVTNRPSGVSNRFSGSKSGNTASLTISGLRAEDEADYHCSSYRTRNTHVIFGGGTKLTVL", "neutralization concentration (GMC, CPE reduction on Vero C1008 cells)": 0.88}
{"binder": "4T0243 (antibody, V domains shown) VH: QVQLQESGPGLVKPSETLSLTCTVSGGSLSTYYWNWIRQPPGKGLEWIGYIYYSSLPKYSPTLKSRITISVDTSKNQFSLKLSSVTAADTAVYYCARAPRGYSSGKYNYYGLDVWSQGTTVTVSS VL: SYELTQPPSVSVSPGHTATITCSGDALSKQFAYWYQQKPGQAPVLVISKDTERPSGIPGRFSGSSSGPTATLTISGVQAEDEADYYCQSADSSGGYYVFGSGTRVTVL", "neutralization concentration (GMC, CPE reduction on Vero C1008 cells)": 0.011}
{"binder": "5T0451 (antibody, V domains shown) VH: EVQLVESGGGLVKPGGSLRLSCAASGFTFTNAWMNWVRQAPGKGLEWIGRIKSKGDGGTADHAAPVRGRFIISRDDSKQMLYLQMTGLKSDDTAVYYCTRGPYDNFSGWRDYWGQGTLVTVSS VL: QSVLTQPPSVSGAPGQRVTISCTGSGSNIGAGYDVQWYQQHPGTAPKVLIYGNNKRPSGVPDRFSGSKSGTSASLAITGLQAEDEAHYYCQSYDARLRDSWVFGGGTQLTVL", "neutralization concentration (GMC, CPE reduction on Vero C1008 cells)": 1.05}
{"binder": "3T0338 (antibody, V domains shown) VH: EVQLVESGGALVKPGGSLRLSCAASGFSFKTAWMNWVRQAPGKGLEWVGRIKSRADGGTSDYSASVKGRFTFSRDDSKNTLYLQMTSLKTEDTGMYYCTTLNLGGGFPGEWRSVWGQGTTVTVSS VL: QSVLTQPPSVSGAPGQRVTISCTGSYSNIGSGYDVLWYQQLPGAAPKLLIYGNNNRPSGVPDRFSGSKSGTSASLAITELQAEDEGDYYCQSYDSRLRDSWVFGGGTRLTVL", "neutralization concentration (GMC, CPE reduction on Vero C1008 cells)": 1.06}
{"binder": "4T0444 (antibody, V domains shown) VH: EVQLVVSGGGLVQPGGSLRLSCAASGFTLKSYDIHWVRQRPGEGLEWVAAIGAAGDTYFSGSVKGRFTISRENARNSLYLQMNSLGAGDTAIYYCARARFGDLALDYWGQGILVTVSS VL: EIVLTQSPGTLSLSPGERATLSCRSSQSVSSNSLAWYQQKPGQAPRLLIYGASSRAAGIPDRFSGSGSGTDFTLTISRLQPEDFAVFFCHQYSSSPLTFGGGTKVEIK", "neutralization concentration (GMC, CPE reduction on Vero C1008 cells)": 1.2}
{"binder": "3T0253 (antibody) heavy: EVQLVESGGGLVKPGRSLRISCAASGITFNKAWMNWVRLAPGKGLEWVGRIKSNGDGGKRDYAAPVTGRFTISRDDSKNTLYLQMNSLKTEDTAVYFRTTRHHRGMDVWGQGTTVTVSS light: QSVLTQPPSVSGAPGQRVTISCTGSSSNIGAGYDVHWYQHLPGAAPKLLIYGDGSRPSGVPDRFSASKSGTSASLAITGLQAEDEADYYCQSYDSSLSDAVVFGGGTKLTVL", "neutralization concentration (GMC, CPE reduction on Vero C1008 cells)": 1.31}
{"binder": "3T0553 (antibody, V domains shown) VH: QVQLVESGGGVVQPGRSLRLSCAASGFTFTTCAMHWVRQAPGKGLEWVSVMWYDGSREYYADSVKGRFTISRDNSKNTLYLEMQSLRAEDTAVYYCARGGDLLVEVDSTDYYGLDVWGQGTTVTVSS VL: DIQMTQSPSAMSASVGDRVTITCRASQGISHSLAWFQQKPGKVPKRLIYSASTLQSGVPSRFSGSGSGTEFTLTISSLQPEDFATYYCLQHNRYPWTFGQGTKVEIK", "neutralization concentration (GMC, CPE reduction on Vero C1008 cells)": 1.31}
{"binder": "1T0455 (antibody, V domains shown) VH: EVQLVESGGGLVKPGESLRLSCAVSGLTFSNAWMNWVRQAPGKGLEWVGRIKSKSDGGAADYAAPVNARFTISRDDSKKTLYLQMNSLKTEDTGFYYCTTLYHSGQGTLVTVSS VL: QSVLTQPPSVSGAPGQRVTISCTGSSSNIGAGYDVHWYQQLPGTAPKFVIYGNNNRPSGVPDRFSGSKSGTSASLAITGLQVEDEGDYYCQSYDSRLSDHVVFGGGTKLTVL", "neutralization concentration (GMC, CPE reduction on Vero C1008 cells)": 1.77}
{"binder": "5T0209 (antibody, V domains shown) VH: EVQLVDSGGGLVKPGGSLRLSCAASGFTFSKAWMSWVRQAPGKGLEWVGRIKSRTDGGTTDYAAPVRGRFTISRDDSKNTLFLQMNSLKPEDTAIYYCATDYYESRGYWGQGTLVTVSS VL: QSVLTQPPSVSGAPGQRVTISCTGSSSNIGAGYDVNWYQQIPGTAPKLLIYGNNKRPSGVPDRFSGSKSGTSVSLAITGLQAEDEADYYCQSYDSRLSDHWVFGGGTKLTVL", "neutralization concentration (GMC, CPE reduction on Vero C1008 cells)": 1.77}
{"binder": "1T0227 (antibody, V domains shown) VH: EVQLVESGGGLVKPGGSLRLSCAASGFTFRNAWMNWVRQAPGKGLEWVGRIKSRADGGPTDYAAPVKGRFTISRDDSKNTLYLQMNSLKSEDTAVYYCTTHVPDYNSAYYWVYWGQGTLVTVSS VL: QSVLTQPPSVSGAPGQRVTISCTGSSSNIGAGYDVYWYQQLPGTAPKLIIYGNNNRPSGVPDRFSASKSGPSASLAITGLQAEDEADYYCQSYDIRLSDNYVFGTGTKVTVL", "neutralization concentration (GMC, CPE reduction on Vero C1008 cells)": 1.86}
{"binder": "4T0784 (antibody, V domains shown) VH: QVQLVESGGGVVQPGRSLRLSCAASGFTFSTYGVHWVRQAPGKGLEWVGVIWYDGSKKYYADSVKGRFTISRDNSKNTLYLQMNSLRAEDAAVYRCVRGGDLLLLPDSIDYYGMDVWGQGTLVTVSS VL: KDHDPQAPVSLSASVGDRVTITCRASQGIRNDLGWYQQKPGKAPKRLIYAASSLQSGVPSRFSGSGSGTEFTLTISSLQPEDFATYYCLQHNTYPFSFGPGTKVDIK", "neutralization concentration (GMC, CPE reduction on Vero C1008 cells)": 1.86}
{"binder": "5T0223 (antibody, V domains shown) VH: EVQLVESGGGLVKPGGSLRLSCEASGFTFRNTWMNWVRQAPGKGLEWVGRIKSNTDGGTADYAAPVKGRFTISRDDSKSTLFLEMISLRTEDTGFYYCTKGGPGAHSWGLGTLVTVSS VL: QSVLTQPPSVSGAPGQRVTISCTGSSSNIGAGYDVQWYQQLPGTAPKVLIYHNTNRPSGVPDRFSGSRSGTSASLVITGLQAEDEADYYCQTYDSRLSDHWVFGGGTKLTVL", "neutralization concentration (GMC, CPE reduction on Vero C1008 cells)": 1.86}
{"binder": "3T0258 (antibody, V domains shown) VH: QVQLVQSGAEVKQPGASVKVTCKASGSTRSSYDLIWVRQAPGQGLELMGRVNTHNGNTDYAQKFQGRVTMTTDTSTTTAHMELRNLRSDDTAVYYCAWRRSSWFAFDVWGQGTAVTVSS VL: EIVLTQSPGTLSLSPGERGTLSCRASQSISGNYLGWYQQSPGQAPRLLIYGASNRATGVPDRFSGSGSGTDFTLTISRLEPEDFAVYYCQQYVSSPYTFGQGTKLEIK", "neutralization concentration (GMC, CPE reduction on Vero C1008 cells)": 0.06}
{"binder": "3T0468 (antibody, V domains shown) VH: EVQLVESGGHLIQPGGSLRLSCAASGFTFRIYDMHWVRQGRRKGLEWVSAIGAAGDTYYSDSVKGRFTISRENAKSSLYLQMNSLSVGDTAVYYCARAAFGAVYYDNWGQGILVTVSS VL: EIVLTQSPGTLSLSPGERATLSCRASENVDSRFLVWYQQKVGQAPRLLIYGASRRATGIPDRFSGSGSGTDFALTISRLEPEDLAVYYCQQYGRSPITFGQGTRLEIK", "neutralization concentration (GMC, CPE reduction on Vero C1008 cells)": 2.1}
{"binder": "5T0337 (antibody, V domains shown) VH: EVQLVESGGGLVKPGGSLRISCAASGFTFNNAWMNWVRQSPGKGLEWVGRIKSKSDAGTTDYAAPVKGRFIISRDDSKKTLFLQMNSLKIEDTAIYFCMTGFEHTYSYFDLWGRGTQVTVSS VL: QSVLTQPPSVSGAPGQRVIISCIGGSSNIGAGYDVKWYQQLLPGTAPRLLIYGNTNRPSGVPDRFSGSKSGTSASLAITGLQAEDEADYYCQSYDSRLRDAWVFGGGTKLTVL", "neutralization concentration (GMC, CPE reduction on Vero C1008 cells)": 2.21}
{"binder": "1T0451 (antibody, V domains shown) VH: QVQLVQSGAEVKKPGASVKISCEASGYNFNGYVIDWVRQAPGQRLEWMGWINPGNGNTKFSPKFQGRVTFTRAASASTAYMELSSLTSEDTALYFCARGRGTSYYYAFDVWGQGTTVTVSS VL: DIQMTQFPSSLSASVGDRVTISCRASQNISNYLNWYQQKPGKAPKFLIYAASNLQSGVPSRFSGSGSGTGFTLTISNLQPEDFAIYYCQQTYRSPLYTFGQGTKLEIK", "neutralization concentration (GMC, CPE reduction on Vero C1008 cells)": 2.5}
{"binder": "5T0202 (antibody, V domains shown) VH: EVQLVESGGGLVKPGGSLRLSCGASGFSFNDAWMNWVRQAPGKGLEWVGRIKSKADGGGSDTAAPVKGRFIISRDDSKNTLFLQMERLKSEDTGVYYCTTSLNIWGTYRDCWGQGTLVTVSS VL: QSVLTQPPSVSGAPGQRVTISCTGSYSNIGAGYDVRWYQQLPETAPKLLIYGNNNRPSGVPDRFSGSKSGTSASLAITGLQAEDEADYYCQSYDSRLRDSWVFGGGTRLTVL", "neutralization concentration (GMC, CPE reduction on Vero C1008 cells)": 2.5}
{"binder": "4T0726 (antibody, V domains shown) VH: QVQLVQSGVEVKEPGASVRVSCKASGYTFTHYGITWVRQAPGQGLEWMGWISGYNGNTDYAQKFQGRITMTTDTSTSTAYMELGRLTSDDTAVYYCARTITMILLGWFDPWGQGTLVTVSS VL: EIVLTQSPGTLSLSPGERATLSCRASQSVSSNYLAWYQQKPGQAPRLLISGASNRATGLPDGFSGSGSGTDFTLTISRLEPEDFAVFFCQQYGTSPLTFGPGTKVDIK", "neutralization concentration (GMC, CPE reduction on Vero C1008 cells)": 2.56}
{"binder": "1T0201 (antibody, V domains shown) VH: EVQLVESGGGLVKPGGSLRLSCAAAGFSFSKAWMNWVRQAPGKGLEWVGRIKSKTDGGTTDYTAPVKGRFIISRDDSKNMLYLQMNSLKAEDTAVYWCTTRVDMEWGKYGTDVWGQGTTVTVSS VL: QSVLTQPPSVSGAPGQRVTISCTGSSSNIGAGYDVHWYQKLPGTAPKLLIYDKNIRPSGVPDRFSGSKSGVSASLAITGLQAEDEADYYCQSYDSRLSDSWVFGGGTKLTVL", "neutralization concentration (GMC, CPE reduction on Vero C1008 cells)": 2.63}
